Results reported in paper PMC6719084 (2019).

Key:
Assay in all cases: FP
MCL-1ΔNΔC = target: T1, MCL-1ΔNΔC
T1 chain: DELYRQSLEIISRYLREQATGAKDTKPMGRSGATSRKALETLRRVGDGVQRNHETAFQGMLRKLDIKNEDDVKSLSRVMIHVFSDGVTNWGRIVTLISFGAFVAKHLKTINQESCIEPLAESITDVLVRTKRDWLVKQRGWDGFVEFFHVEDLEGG

BCL-XLΔC = target: BCL-XLΔC
BCL-WΔC = target: T2, BCL-WΔC
T2 chain: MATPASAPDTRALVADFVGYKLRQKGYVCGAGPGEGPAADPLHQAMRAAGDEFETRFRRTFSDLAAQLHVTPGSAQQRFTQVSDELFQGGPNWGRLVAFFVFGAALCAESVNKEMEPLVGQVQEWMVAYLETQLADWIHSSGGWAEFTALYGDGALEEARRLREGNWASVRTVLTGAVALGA

BCL-2ΔC = target: BCL-2ΔC

B1: FITC-BIM_(A,cath,K)PA2 (BIMA, valine-citrulline cathepsin-cleavable linker, five lysines, DSPE-PEG(2000) lipid tail) (peptide)
chain: IWIAQELRRIGDEFNAYYARRVXKKKKK
modifications: fluorescein isothiocyanate (FITC) on the N-terminus; citrulline after the linker's valine (written X in the letters); DSPE-PEG(2000)-succinyl lipid tail on the side chain of the C-terminal lysine
Binder B1 has a Kd (MCL-1ΔNΔC) of 453 nM, a Kd (BCL-XLΔC) of 165 nM and a Kd (BCL-WΔC) of 247 nM. It also gave a Kd (BCL-2ΔC) of 187 nM.
